These are literature values, as cited in paper PMC10136230.

As usually defined, the Kd is the free concentration of one partner at which half of the binding sites on the other are occupied at equilibrium, for simple one-to-one binding.

This data set deals with AGE-albumin (UniProt P02768). The data set is described as follows: 125I-labeled ligand binding.

RAGE (from UniProt Q15109): the Kd is 200 nM.
